Reference: article PMC8452627

Assays:
human FcγRIIa (human) = human FcγRIIa (human) (UniProt P12318); assay: SPR; steady-state equilibrium binding assay on ProteOn; human Fcγ receptors
human FcRn (human) = human FcRn (human) (UniProt P55899); assay: SPR; steady-state equilibrium binding assay on ProteOn; human FcRn at pH 6
Sequence of UniProt P55899 (P55899 24-365): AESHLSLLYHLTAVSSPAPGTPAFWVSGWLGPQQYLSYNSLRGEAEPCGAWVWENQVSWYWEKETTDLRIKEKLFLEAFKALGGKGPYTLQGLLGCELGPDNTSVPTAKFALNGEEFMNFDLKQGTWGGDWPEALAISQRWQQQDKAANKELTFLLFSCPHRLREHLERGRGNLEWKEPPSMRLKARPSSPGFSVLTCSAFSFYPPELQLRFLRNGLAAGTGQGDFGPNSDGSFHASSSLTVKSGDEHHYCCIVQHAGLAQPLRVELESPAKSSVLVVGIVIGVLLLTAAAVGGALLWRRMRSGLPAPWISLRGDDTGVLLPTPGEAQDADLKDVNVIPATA

Sequence of UniProt P12318 (P12318 34-317): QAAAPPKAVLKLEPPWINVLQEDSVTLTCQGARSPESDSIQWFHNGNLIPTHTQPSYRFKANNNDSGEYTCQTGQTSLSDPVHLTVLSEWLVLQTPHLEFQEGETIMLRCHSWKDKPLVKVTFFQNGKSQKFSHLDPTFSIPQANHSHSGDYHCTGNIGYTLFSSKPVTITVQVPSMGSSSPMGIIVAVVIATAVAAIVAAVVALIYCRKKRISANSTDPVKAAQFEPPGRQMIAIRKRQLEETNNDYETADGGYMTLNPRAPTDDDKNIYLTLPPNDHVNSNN

Substance: isotype control of human IgG4 S228P (antibody)
- Kd (human FcγRIIa (human)): 1400 nM
- Kd (human FcRn (human)): 6.2 µM
